Molecular target: Pim-1 kinase (SPR analysis) (UniProt P11309 1-313)
Test: SPR

Sequence of Pim-1 kinase (SPR analysis) (P11309 whole entry): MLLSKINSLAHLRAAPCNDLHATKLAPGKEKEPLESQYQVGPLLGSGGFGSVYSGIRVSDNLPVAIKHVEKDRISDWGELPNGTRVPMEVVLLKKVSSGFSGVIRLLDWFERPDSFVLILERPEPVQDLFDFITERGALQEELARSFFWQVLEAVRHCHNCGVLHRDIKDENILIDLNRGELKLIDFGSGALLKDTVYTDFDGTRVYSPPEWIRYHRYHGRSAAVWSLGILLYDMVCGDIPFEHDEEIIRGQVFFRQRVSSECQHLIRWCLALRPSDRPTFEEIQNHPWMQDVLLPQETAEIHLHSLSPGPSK

- Kd: 4.25 µM
Binder: RRRRRRRRKKPGLDRDQT [R8-T198mu peptide]
